This is an account of results in the supplement of paper PMC7125110.

± gives the standard error. Fewer inactive variants are shown than the library holds.

The chains are these.
B1: glmS ribozyme (parent)
chain: AUAAAAGCGCCAGAACUACAGAAAUGUAGUUGACGAGGAGGAGGUUUAUCGAAUUUUCGGCGGAUGCCUCCAAA

The variants in one data set derive from B1. The data set can be described thus: self-cleavage kobs at 2500 uM GlcN6P; higher = faster cleavage; RNA array. The following applies: with glucosamine-6-phosphate. Summed up: (§1)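 Tiles of sequenced MiSeq chips were imaged over ~14 h at 37 °C. On them, barcoded ribozyme variants had been transcribed in situ by E. coli RNA polymerase and were tracked via a hybridised Cy3 probe while glucosamine-6-phosphate (40 μM to 10 mM) in HEPES/KCl/Mg(OAc)2 buffer flowed in. Per-tile medians, normalised to baseline and to non-cleaving reference variants, were fit to one- or two-exponential decays for kobs, and weighted Michaelis–Menten fits gave kcat and KM.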
Turning to U65A C67G C71U, the “self-cleavage kobs at 2500 uM GlcN6P” value amounted to 3.53e-05 ± 1.5e-05 s⁻¹.

As to A12C G40U U54A, the “self-cleavage kobs at 2500 uM GlcN6P” value was found to be 0.000324 ± 6.9e-05 s⁻¹.

As for C34U U47C C61U, the “self-cleavage kobs at 2500 uM GlcN6P” value is < 1e-05 s⁻¹.

A6U C8U G32A A33G G44A U45G: the “self-cleavage kobs at 2500 uM GlcN6P” value was < 1e-05 s⁻¹.

Take C50U G59A C70G C71U: the “self-cleavage kobs at 2500 uM GlcN6P” value amounted to 5.06e-05 ± 1.7e-05 s⁻¹.

As for A36G G40C C61U G63C A64C, the “self-cleavage kobs at 2500 uM GlcN6P” value is < 1e-05 s⁻¹.

Consider A12G U55A U69G, for which the “self-cleavage kobs at 2500 uM GlcN6P” value came out at 0.000115 ± 3e-05 s⁻¹.

For C34U G44U U49C G59A C61A, the “self-cleavage kobs at 2500 uM GlcN6P” value was < 1e-05 s⁻¹.

Consider C11G U30G U49A, for which the “self-cleavage kobs at 2500 uM GlcN6P” value was < 1e-05 s⁻¹.

A6G G44A A52U C61U G62A C70G C71U: the “self-cleavage kobs at 2500 uM GlcN6P” value is < 1e-05 s⁻¹.

With G40A C61G G66C C67A, the “self-cleavage kobs at 2500 uM GlcN6P” value is < 1e-05 s⁻¹.

Take G13C C61A: the “self-cleavage kobs at 2500 uM GlcN6P” value was < 1e-05 s⁻¹.

Consider G29U U49A C70G, for which the “self-cleavage kobs at 2500 uM GlcN6P” value was found to be 5.3e-05 ± 1.9e-05 s⁻¹.

Consider A36G C61G C67G U69G C71A, for which the “self-cleavage kobs at 2500 uM GlcN6P” value was < 1e-05 s⁻¹.

Take A15G A36G G44U G60C: the “self-cleavage kobs at 2500 uM GlcN6P” value is < 1e-05 s⁻¹.

With A14C U46C C50A U57C C61U U65C, the “self-cleavage kobs at 2500 uM GlcN6P” value is < 1e-05 s⁻¹.

For the variant A12G A14U A64G, the “self-cleavage kobs at 2500 uM GlcN6P” value was 0.000293 ± 7.2e-05 s⁻¹.

For the variant A6G G9A G38A A48G A53G C71G, the “self-cleavage kobs at 2500 uM GlcN6P” value was < 1e-05 s⁻¹.

U30A A33U A39G G44C U47G A52U: the “self-cleavage kobs at 2500 uM GlcN6P” value was < 1e-05 s⁻¹.

Turning to A6G A12G G51U, the “self-cleavage kobs at 2500 uM GlcN6P” value was < 1e-05 s⁻¹.

For C61U G63C C71U, the “self-cleavage kobs at 2500 uM GlcN6P” value was < 1e-05 s⁻¹.

Consider G7A G43A C70A, for which the “self-cleavage kobs at 2500 uM GlcN6P” value was < 1e-05 s⁻¹.

Take C10U C16U G32U: the “self-cleavage kobs at 2500 uM GlcN6P” value came to 6.59e-05 ± 1.7e-05 s⁻¹.

Turning to C34U G37C A42U, the “self-cleavage kobs at 2500 uM GlcN6P” value was < 1e-05 s⁻¹.

Turning to C16U U46G U55C, the “self-cleavage kobs at 2500 uM GlcN6P” value is 0.00261 ± 0.00068 s⁻¹.

G38A A42C U56G: the “self-cleavage kobs at 2500 uM GlcN6P” value is < 1e-05 s⁻¹.

For the variant A6G A33U C58A, the “self-cleavage kobs at 2500 uM GlcN6P” value is < 1e-05 s⁻¹.

A6C A48U C61U C70G: the “self-cleavage kobs at 2500 uM GlcN6P” value is < 1e-05 s⁻¹.

U56G G60A U65G: the “self-cleavage kobs at 2500 uM GlcN6P” value was < 1e-05 s⁻¹.

As to A6U C8U C58G, the “self-cleavage kobs at 2500 uM GlcN6P” value was < 1e-05 s⁻¹.

On to U30A G38A A52G, for which the “self-cleavage kobs at 2500 uM GlcN6P” value is < 1e-05 s⁻¹.

Regarding G37U A48C A53G, the “self-cleavage kobs at 2500 uM GlcN6P” value was < 1e-05 s⁻¹.

Regarding G43U U56C C67G, the “self-cleavage kobs at 2500 uM GlcN6P” value was < 1e-05 s⁻¹.

Turning to A6G A53C C68A, the “self-cleavage kobs at 2500 uM GlcN6P” value is < 1e-05 s⁻¹.

With A12G A15U U54C C67G, the “self-cleavage kobs at 2500 uM GlcN6P” value is 5.41e-05 ± 1.9e-05 s⁻¹.

As to A14U U30A C70U, the “self-cleavage kobs at 2500 uM GlcN6P” value was 0.000871 ± 0.00021 s⁻¹.

C34A A48G U57C: the “self-cleavage kobs at 2500 uM GlcN6P” value is < 1e-05 s⁻¹.

Consider G35U G37U G43U G44A, for which the “self-cleavage kobs at 2500 uM GlcN6P” value was < 1e-05 s⁻¹.

Turning to U46G A48G U57G G62U, the “self-cleavage kobs at 2500 uM GlcN6P” value was < 1e-05 s⁻¹.

With C34G G41U A42U, the “self-cleavage kobs at 2500 uM GlcN6P” value was < 1e-05 s⁻¹.

On to G29C G40U U46C C67A, for which the “self-cleavage kobs at 2500 uM GlcN6P” value was < 1e-05 s⁻¹.

On to C16U G51U A52C C68A C70U C71U, for which the “self-cleavage kobs at 2500 uM GlcN6P” value is < 1e-05 s⁻¹.

Turning to C8U G38C C61A, the “self-cleavage kobs at 2500 uM GlcN6P” value is < 1e-05 s⁻¹.

Turning to U45C G66C C71A, the “self-cleavage kobs at 2500 uM GlcN6P” value is 6.04e-05 ± 2.8e-05 s⁻¹.

Take G13C A15C G59A: the “self-cleavage kobs at 2500 uM GlcN6P” value was < 1e-05 s⁻¹.

For A12G U45A C70G, the “self-cleavage kobs at 2500 uM GlcN6P” value stood at 0.000143 ± 3.9e-05 s⁻¹.

Take G37A G38C A42C: the “self-cleavage kobs at 2500 uM GlcN6P” value was < 1e-05 s⁻¹.

For the variant U45G A48C, the “self-cleavage kobs at 2500 uM GlcN6P” value turned out to be 5.95e-05 ± 2.2e-05 s⁻¹.

U30A A36C U45C: the “self-cleavage kobs at 2500 uM GlcN6P” value is < 1e-05 s⁻¹.

Turning to C11U A42G C71U, the “self-cleavage kobs at 2500 uM GlcN6P” value amounted to 0.0013 ± 0.0004 s⁻¹.

As to A6G G60A C67G, the “self-cleavage kobs at 2500 uM GlcN6P” value is < 1e-05 s⁻¹.

For A15C G43U C67A, the “self-cleavage kobs at 2500 uM GlcN6P” value is 0.000235 ± 7.7e-05 s⁻¹.

U46A A52G G62U C70U: the “self-cleavage kobs at 2500 uM GlcN6P” value was < 1e-05 s⁻¹.

For the variant G29C C67A C68G, the “self-cleavage kobs at 2500 uM GlcN6P” value was 7.78e-05 ± 2.8e-05 s⁻¹.

As for A12U C50G G66C C70A, the “self-cleavage kobs at 2500 uM GlcN6P” value was determined as 5.12e-05 ± 2e-05 s⁻¹.

In the case of C11A A33C A53C A64C, the “self-cleavage kobs at 2500 uM GlcN6P” value is < 1e-05 s⁻¹.

For C34A A36G G38U U69G, the “self-cleavage kobs at 2500 uM GlcN6P” value turned out to be 4.35e-05 ± 2e-05 s⁻¹.

Turning to A6C U30C A39U U47A C50U A53C, the “self-cleavage kobs at 2500 uM GlcN6P” value was < 1e-05 s⁻¹.

For the variant G7C A12G A39U A42C U65C C71A, the “self-cleavage kobs at 2500 uM GlcN6P” value was < 1e-05 s⁻¹.

For G35C A42G U49C, the “self-cleavage kobs at 2500 uM GlcN6P” value was < 1e-05 s⁻¹.

Turning to G13U G41C G60A, the “self-cleavage kobs at 2500 uM GlcN6P” value is < 1e-05 s⁻¹.

Regarding U49C U56G G66C, the “self-cleavage kobs at 2500 uM GlcN6P” value was < 1e-05 s⁻¹.

Consider G32C A33C U47C A64C, for which the “self-cleavage kobs at 2500 uM GlcN6P” value is < 1e-05 s⁻¹.

With U31A A39U C70U, the “self-cleavage kobs at 2500 uM GlcN6P” value was determined as 0.00182 ± 0.0009 s⁻¹.

On to C16U G43C U45G, for which the “self-cleavage kobs at 2500 uM GlcN6P” value is 0.000762 ± 0.00024 s⁻¹.

As for G32U U45C, the “self-cleavage kobs at 2500 uM GlcN6P” value stood at 1.98e-05 ± 7.1e-06 s⁻¹.

As to G7A U45A U49G, the “self-cleavage kobs at 2500 uM GlcN6P” value is < 1e-05 s⁻¹.

With G35C G38U G43U, the “self-cleavage kobs at 2500 uM GlcN6P” value was < 1e-05 s⁻¹.

With G7C G38C G51U, the “self-cleavage kobs at 2500 uM GlcN6P” value was < 1e-05 s⁻¹.

Consider A48C C67G, for which the “self-cleavage kobs at 2500 uM GlcN6P” value is 2.91e-05 ± 1e-05 s⁻¹.

With G9U A36G C61G C67U, the “self-cleavage kobs at 2500 uM GlcN6P” value is < 1e-05 s⁻¹.

Turning to A12G G59C C67U, the “self-cleavage kobs at 2500 uM GlcN6P” value was determined as 4.19e-05 ± 1.9e-05 s⁻¹.

With C8U G37U A39C, the “self-cleavage kobs at 2500 uM GlcN6P” value is < 1e-05 s⁻¹.

A14G A53C U57G: the “self-cleavage kobs at 2500 uM GlcN6P” value turned out to be 0.000168 ± 5.2e-05 s⁻¹.

U56C C58U G63A: the “self-cleavage kobs at 2500 uM GlcN6P” value was < 1e-05 s⁻¹.

As for U45A A52U C71U, the “self-cleavage kobs at 2500 uM GlcN6P” value is 0.000244 ± 9.4e-05 s⁻¹.

As to C10A C50A C67U, the “self-cleavage kobs at 2500 uM GlcN6P” value is 0.000776 ± 0.00021 s⁻¹.

Take A15G G32C C70G: the “self-cleavage kobs at 2500 uM GlcN6P” value is < 1e-05 s⁻¹.

As to G29A A42C A64U, the “self-cleavage kobs at 2500 uM GlcN6P” value was < 1e-05 s⁻¹.

On to G44A A53U U54C, for which the “self-cleavage kobs at 2500 uM GlcN6P” value stood at 0.000119 ± 4.8e-05 s⁻¹.

Variants of B1 are the subject of a further data set. Briefly: self-cleavage kobs at 10000 uM GlcN6P; higher = faster cleavage; RNA array. The following applies: with glucosamine-6-phosphate. Summed up: as §1
Take U45G A48C: the “self-cleavage kobs at 10000 uM GlcN6P” value came out at 0.000117 ± 2.2e-05 s⁻¹.

Regarding C11A A33C A53C A64C, the “self-cleavage kobs at 10000 uM GlcN6P” value was < 1e-05 s⁻¹.

Take G32U U45C: the “self-cleavage kobs at 10000 uM GlcN6P” value came to 4.42e-05 ± 5.9e-06 s⁻¹.

As for A48C C67G, the “self-cleavage kobs at 10000 uM GlcN6P” value came to 2e-05 ± 7.5e-06 s⁻¹.

Take C10A C50A C67U: the “self-cleavage kobs at 10000 uM GlcN6P” value came to 4.36e-05 ± 1.7e-05 s⁻¹.

For the variant G44A A53U U54C, the “self-cleavage kobs at 10000 uM GlcN6P” value is 0.000211 ± 6.8e-05 s⁻¹.
